This is an account of results in paper PMC11250029.

The target in this assay is lavanducyanin halogenase (LvcH) (Streptomyces sp. CNZ-289). Kind of assay: SEC.

The term stoichiometry N denotes a count of units in the complex or per binding partner. As to “lavanducyanin halogenase (LvcH) (enzyme)”, the stoichiometry N is 2.
